The text below walks through data of publication PMC5439444 (Vascular pharmacology, 2016).

This assay deals with GST fusion protein of human full-length (FL) Pin1 (residues 1-163) (human, UniProt Q13526 1-163). Briefly: pull-down.

Bounds are passed on as bounds.

Sequence of GST fusion protein of human full-length (FL) Pin1 (residues 1-163) (Q13526 whole entry, the tested form may be a part): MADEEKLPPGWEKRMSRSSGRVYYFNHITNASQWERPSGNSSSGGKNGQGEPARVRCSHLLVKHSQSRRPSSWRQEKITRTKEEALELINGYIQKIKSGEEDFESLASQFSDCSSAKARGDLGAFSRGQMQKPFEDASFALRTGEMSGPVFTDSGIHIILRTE

B1: bovine phospho-mimetic S116D endothelial nitric oxide synthase (eNOS) (enzyme, UniProt P29473 1-1205, looked up)
chain: MGNLKSVGQEPGPPCGLGLGLGLGLCGKQGPASPAPEPSRAPAPATPHAPDHSPAPNSPTLTRPPEGPKFPRVKNWELGSITYDTLCAQSQQDGPCTPRCCLGSLVLPRKLQTRPDPGPPPAEQLLSQARDFINQYYSSIKRSGSQAHEERLQEVEAEVASTGTYHLRESELVFGAKQAWRNAPRCVGRIQWGKLQVFDARDCSSAQEMFTYICNHIKYATNRGNLRSAITVFPQRAPGRGDFRIWNSQLVRYAGYRQQDGSVRGDPANVEITELCIQHGWTPGNGRFDVLPLLLQAPDEAPELFVLPPELVLEVPLEHPTLEWFAALGLRWYALPAVSNMLLEIGGLEFSAAPFSGWYMSTEIGTRNLCDPHRYNILEDVAVCMDLDTRTTSSLWKDKAAVEINLAVLHSFQLAKVTIVDHHAATVSFMKHLDNEQKARGGCPADWAWIVPPISGSLTPVFHQEMVNYILSPAFRYQPDPWKGSATKGAGITRKKTFKEVANAVKISASLMGTLMAKRVKATILYASETGRAQSYAQQLGRLFRKAFDPRVLCMDEYDVVSLEHEALVLVVTSTFGNGDPPENGESFAAALMEMSGPYNSSPRPEQHKSYKIRFNSVSCSDPLVSSWRRKRKESSNTDSAGALGTLRFCVFGLGSRAYPHFCAFARAVDTRLEELGGERLLQLGQGDELCGQEEAFRGWAKAAFQASCETFCVGEEAKAAAQDIFSPKRSWKRQRYRLSTQAEGLQLLPGLIHVHRRKMFQATVLSVENLQSSKSTRATILVRLDTAGQEGLQYQPGDHIGICPPNRPGLVEALLSRVEDPPPPTESVAVEQLEKGSPGGPPPSWVRDPRLPPCTLRQALTFFLDITSPPSPRLLRLLSTLAEEPSEQQELETLSQDPRRYEEWKWFRCPTLLEVLEQFPSVALPAPLLLTQLPLLQPRYYSVSSAPNAHPGEVHLTVAVLAYRTQDGLGPLHYGVCSTWLSQLKTGDPVPCFIRGAPSFRLPPDPYVPCILVGPGTGIAPFRGFWQERLHDIESKGLQPAPMTLVFGCRCSQLDHLYRDEVQDAQERGVFGRVLTAFSREPDSPKTYVQDILRTELAAEVHRVLCLERGHMFVCGDVTMATSVLQTVQRILATEGDMELDEAGDVIGVLRDQQRYHEDIFGLTLRTQEVTSRIRTQSFSLQERHLRGAVPWAFDPPGPDTPGP
Turning to B1, the “amount bound relative to WT eNOS” value is greater than 2 fold.
